pKd: −log10 of the molar value.
Columns and labels:
Caveolin-1 135-178 = Caveolin-1 135-178 (UniProt Q03135); test: given as Ka
Caveolin-1 61-101 = Caveolin-1 61-101 (UniProt Q03135); test: given as Ka
Sequence of Caveolin-1 61-101 (Q03135 61-101): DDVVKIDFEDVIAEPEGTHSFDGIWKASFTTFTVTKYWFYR

Sequence of PrP, P04925 (P04925 23-230): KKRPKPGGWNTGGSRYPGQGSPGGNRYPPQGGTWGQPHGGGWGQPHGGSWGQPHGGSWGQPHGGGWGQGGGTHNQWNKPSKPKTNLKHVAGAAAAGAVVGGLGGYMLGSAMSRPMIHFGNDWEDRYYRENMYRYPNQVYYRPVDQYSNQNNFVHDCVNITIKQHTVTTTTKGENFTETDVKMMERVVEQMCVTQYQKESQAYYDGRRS
Sequence of Caveolin-1 135-178 (Q03135 135-178): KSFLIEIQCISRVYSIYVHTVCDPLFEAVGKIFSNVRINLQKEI

PrP, P04925
pKd (Caveolin-1 135-178): 8.93 | pKd (Caveolin-1 61-101): 8.93

Source: PMC1559926
